The record followed here is paper PMC7028737.

Some results are limits rather than exact numbers.

The assay deals with Skp1-FBW7 complex (UniProt Q969H0). Put plainly: ITC; MicroCal VP-ITC, 30 °C, 50 mM phosphate buffer pH 7.4; cell: 15 μM Skp1-FBW7 complex (1400 μL); syringe: 300 μM FIR∆exon2, 25 injections of 10 μL.
Chain of UniProt Q969H0 (Q969H0 whole entry, chain 1 of 2): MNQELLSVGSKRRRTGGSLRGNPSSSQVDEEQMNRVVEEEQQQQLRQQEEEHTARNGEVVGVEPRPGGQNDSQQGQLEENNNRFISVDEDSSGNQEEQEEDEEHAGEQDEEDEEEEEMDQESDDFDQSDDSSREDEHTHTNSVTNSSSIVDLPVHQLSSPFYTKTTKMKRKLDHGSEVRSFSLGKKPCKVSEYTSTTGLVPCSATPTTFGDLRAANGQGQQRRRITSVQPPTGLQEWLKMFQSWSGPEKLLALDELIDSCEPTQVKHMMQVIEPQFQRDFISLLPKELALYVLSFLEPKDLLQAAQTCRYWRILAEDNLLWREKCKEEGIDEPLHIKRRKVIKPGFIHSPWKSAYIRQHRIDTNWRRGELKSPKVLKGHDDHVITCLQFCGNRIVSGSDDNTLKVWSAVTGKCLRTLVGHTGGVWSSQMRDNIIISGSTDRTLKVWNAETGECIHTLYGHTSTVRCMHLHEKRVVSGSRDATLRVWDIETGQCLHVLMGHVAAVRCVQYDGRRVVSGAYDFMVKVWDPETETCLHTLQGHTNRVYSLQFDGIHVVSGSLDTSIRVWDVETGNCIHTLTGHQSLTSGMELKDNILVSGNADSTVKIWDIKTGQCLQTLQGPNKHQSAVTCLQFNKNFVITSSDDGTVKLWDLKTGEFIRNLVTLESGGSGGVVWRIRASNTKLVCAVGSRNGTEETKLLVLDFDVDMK
Chain of UniProt Q969H0 (P63208 whole entry, chain 2 of 2, further chain): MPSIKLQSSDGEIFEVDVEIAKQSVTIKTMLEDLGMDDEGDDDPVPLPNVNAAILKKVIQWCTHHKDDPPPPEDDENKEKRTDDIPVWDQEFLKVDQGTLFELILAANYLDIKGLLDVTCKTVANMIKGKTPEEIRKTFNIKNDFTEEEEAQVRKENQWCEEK

“FIR∆exon2 (recombinant, Nus-tag cleaved) (natural protein)” had a Ka greater than 108 M⁻¹.
